# Results published in patent US20190177415A1 (PIERRE FABRE MEDICAMENT, published 2019).
# Changes are numbered by the printed parent chain.
# T1: full length cynomolgus monkey C10orf54 (construct CC4) (cynomolgus monkey, UniProt Q9H7M9 33-311 (human entry))
# T1 construct: also called C10orf54 Construct 4
# T1 chain: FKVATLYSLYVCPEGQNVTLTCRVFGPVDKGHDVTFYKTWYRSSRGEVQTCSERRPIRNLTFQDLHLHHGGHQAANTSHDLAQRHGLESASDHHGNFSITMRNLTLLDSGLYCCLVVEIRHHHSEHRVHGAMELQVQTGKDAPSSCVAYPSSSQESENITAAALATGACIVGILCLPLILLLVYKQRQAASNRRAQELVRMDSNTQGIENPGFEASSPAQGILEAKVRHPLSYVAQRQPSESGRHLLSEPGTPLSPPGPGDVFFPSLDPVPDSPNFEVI
# T2: chimeric C10orf54: first half of IgV mouse and remainder (including loop) human (construct CC8) (human/mouse chimera, UniProt Q9H7M9 33-311)
# T2 construct: also called C10orf54 Construct 8; mmabChsC10
# T2 chain: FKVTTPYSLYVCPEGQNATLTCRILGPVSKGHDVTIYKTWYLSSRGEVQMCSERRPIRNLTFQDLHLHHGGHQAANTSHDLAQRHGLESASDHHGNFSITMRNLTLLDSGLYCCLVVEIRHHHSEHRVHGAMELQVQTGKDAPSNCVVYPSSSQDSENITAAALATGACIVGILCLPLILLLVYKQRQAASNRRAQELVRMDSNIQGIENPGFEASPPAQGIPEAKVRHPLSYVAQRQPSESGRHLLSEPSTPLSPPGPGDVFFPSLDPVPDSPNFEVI
# T3: chimeric C10orf54: mouse with human loop (construct CC10) (human/mouse chimera, UniProt Q9D659 33-308 (mouse entry))
# T3 construct: also called C10orf54 Construct 10; mmC10hsLOOP
# T3 chain: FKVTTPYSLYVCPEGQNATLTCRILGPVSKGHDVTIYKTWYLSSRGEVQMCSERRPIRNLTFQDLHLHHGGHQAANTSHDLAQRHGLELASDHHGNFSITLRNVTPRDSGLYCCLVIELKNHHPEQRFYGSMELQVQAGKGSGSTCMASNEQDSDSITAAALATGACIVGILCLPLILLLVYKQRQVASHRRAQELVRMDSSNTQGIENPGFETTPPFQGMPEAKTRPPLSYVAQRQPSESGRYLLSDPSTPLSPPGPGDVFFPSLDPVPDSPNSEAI
# T4: chimeric C10orf54: human IgV with mouse STALK (construct CC5) (human/mouse chimera)
# T4 construct: also called C10orf54 Construct 5; hsIGVmmSTALK
# T4 chain: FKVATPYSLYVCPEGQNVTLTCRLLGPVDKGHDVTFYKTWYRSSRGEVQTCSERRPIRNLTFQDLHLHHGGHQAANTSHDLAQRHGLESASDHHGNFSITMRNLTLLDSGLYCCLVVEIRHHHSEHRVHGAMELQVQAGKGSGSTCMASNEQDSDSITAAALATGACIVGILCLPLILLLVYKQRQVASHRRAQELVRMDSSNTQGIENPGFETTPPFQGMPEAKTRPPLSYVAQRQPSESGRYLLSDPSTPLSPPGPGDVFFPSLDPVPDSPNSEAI
# T5: C10orf54 (antigen of the KD values in Table 42) (human, UniProt Q9H7M9 33-311, limits assumed)
# T5 sequence: T2 chain with T4A, A18V, I24L, S29D, I36F, L42R, M50T
# B1: murine monoclonal antibody 53A (antibody, V domains shown)
# VH: EVQLQQSGPELVKPGASVKMSCKASGYTFTSYFMHWVKQKPGQGLEWIGYIYPYNDGTKYNEKFKGKATLTSDKSSSTAYMELSSLTSEDSAVYYCARFDYDTLRYWGQGTTLTVSS
# VL: DVVLTQTPLSLPVNIGDQASISCKSTKSLLNSDGFTYLDWYLQKPGQSPQLLIYLVSNRFSGVPDRFSGSGSGTDFTLKISRVEAEDLGVYYCFQSNYFPWTFGGGTKLEIK
# notes: Mouse hybridoma antibody
# B2: murine monoclonal antibody 259A (antibody, V domains shown)
# VH: B1 VH with E82D
# VL: B1 VL with V56I
# notes: Mouse hybridoma antibody
# B3: murine monoclonal antibody 5B (antibody, V domains shown)
# VH: QVQLQQSGAELVRPGVSVKISCKGSGYTFTDYGMHWVKQSHAKSLEWIGIIDTYYGDATYNQKFKGKATMTVDKSSSTAYMELARLTSEDSAIYYCARRAGNAMDYWGQGTSVTVSS
# VL: NIVMTQTPKFLLVSAGDRVTITCKASQSVSNDVAWYQQKPGQSPKLLIYYASNRYTGVPDRFTGSGYGTDFTFTISTVQAEDLAVYFCQQDYSSPRTFGGGTKLEIK
# notes: Mouse hybridoma antibody
# B4: murine monoclonal antibody 128A (antibody, V domains shown)
# VH: B3 VH with I50L, Q62H, S77R, V115A
# VL: B3 VL with V3A, V33I, K45R
# notes: Mouse hybridoma antibody
# B5: murine monoclonal antibody 46A (antibody, V domains shown)
# VH: B3 VH with S7A, A9G, D52N, N102T
# VL: B3 VL with N1S, S93G
# notes: Mouse hybridoma antibody
# B6: murine monoclonal antibody 146C (antibody, V domains shown)
# VH: B3 VH with I50L, Q62H, S77R, V115A
# VL: B3 VL with V3A, V33I, K45R
# notes: Mouse hybridoma antibody
# B7: murine monoclonal antibody 208A (antibody, V domains shown)
# VH: B3 VH with I50V, T59G
# VL: B3 VL with N1S
# notes: Mouse hybridoma antibody
# B8: murine monoclonal antibody 215A (antibody, V domains shown)
# VH: EVQLQQSGPELVKPGASMKISCKASGFSFTGYTMNWVKQSHGKNLEWIGLISPYNGGTSYNQKFKGKATLTVDKSSSTAYMELLSLTSEDSAVYYCARRAYGYAMDYWGQGTSVTVSS
# VL: QIVLTQSPAIMSASPGEKVTMTCSASSSVSYMFWYQQKPGSSPRLLIYDTSNLASGVPLRFSGSGSGTSYSLTISRMEAEDAATYYCQQWSSYPFTFGSGTKLEIK
# notes: Mouse hybridoma antibody
# B9: murine monoclonal antibody 26A (antibody, V domains shown)
# VH: B8 VH with G42V
# VL: B8 VL with F33Y
# notes: Mouse hybridoma antibody
# B10: murine monoclonal antibody 230A (antibody, V domains shown)
# VH: EVQLQQSGPELEKPGASVKISCKASGYSFTGSNMNWVKQNNGKSLEWIGNIDPYYGYTTYNQKFKGKATLTVDKSSSTAYMQLKSLTSEDSAVYYCARDYDYALGYFDVWGAGTTVTVSS
# VL: DVVMTQTPLSLPVSLGDQASISCRSSQSLVHSNGNTYLHWYLQKPGQSPKLLIYKVSNRFSGVPDRFSGSGSGTDFTLKISRVEAEDLGVYFCSQSTHVPYTFGGGTKLEIK
# notes: Mouse hybridoma antibody
# B11: murine monoclonal antibody 39A (antibody, V domains shown)
# VH: QVQLQQSGAELMKPGASVKISCKATGYTFSSNWIEWVKQRPGHGLEWIGEILPGSGSTSYNEKFKGKATFTADTSSNTAYMQLSSLTSEDSAVYYCARWLLYYYAMDYWGQGTSVTVSS
# VL: B10 VL with V3L, Q18P, L29I, S32N, H39E, F92Y, S94F, S96G, T97S
# notes: Mouse hybridoma antibody
# B12: murine monoclonal antibody 76E1 (antibody, V domains shown)
# VH: EVQLLQSGPELEKPGASVKISCKASGYSFTGYNMNWVKQSNGKSLEWIGNIDPYYDYTSYNLKFKDKATLTVDKSSSTAYMQLKSLTSEDSAVYYCATSTMITPFDYWGQGTTLTVSS
# VL: B10 VL with V3L, L29I, H39E, S81N, F92Y, S94F, S96G, T97S, Y101W
# notes: Mouse hybridoma antibody
# B13: murine monoclonal antibody 33A (antibody, V domains shown)
# VH: B11 VH with N32Y, S85G, D107V
# VL: B10 VL with V3L, L29I, H39E, F92Y, S94F, S96G, T97S
# notes: Mouse hybridoma antibody
# B14: murine monoclonal antibody 124A (antibody, V domains shown)
# VH: B11 VH with I48M, Y108F
# VL: B10 VL with V3L, L29I, S32N, H39E, F92Y, S94F, S96G, T97S
# notes: Mouse hybridoma antibody
# B15: murine monoclonal antibody 97A (antibody, V domains shown)
# VH: B3 VH with I50V, T59S, Y60N
# VL: B3 VL with N1S, T20A, S93G
# notes: Mouse hybridoma antibody
# Target: T1, full length cynomolgus monkey C10orf54 …
# Test: flow cytometry, transfected 293t cells, 2 ug/ml; stain = MFI >=20-fold over isotype control
# Protocol: (§1) To investigate epitope diversity of the anti-human C10orf54 antibodies, 293t cells were transfected with 1 of 10 different C10orf54 expression constructs that co-express a fluorescent marker. Two days after transfection, cells were stripped from the tissue culture plate, stained with 2 μg/ml anti-human C10orf54 antibody , washed, stained with anti-mouse IgG-Fc Alexa Fluor 647 polyclonal antibody, washed, and stained with the viability dye 4′,6-Diamidino-2-Phenylindole, Dihydrochloride. Upon acquisition of 10,000 live events on a flow cytometer, live cells marked with the fluorescent marker were analyzed for the degree of staining by the anti-human C10orf54 antibody. When the median fluorescence intensity fold-change relative to an isotype control antibody was at least 20-fold, the antibody was considered to stain the C10orf54 expression construct in question.
row,Binder,binding result
1,B1,binds
2,B2,binds
3,B3,binds
4,B4,binds
5,B5,binds
6,B6,binds
7,B7,binds
8,B8,binds
9,B9,binds
10,B10,binds
11,B11,binds
12,B12,binds
13,B13,binds
14,B14,binds

# Target: T2, chimeric C10orf54: first half of IgV …
# Test: as above
# Protocol: as §1
row,Binder,binding result
1,B1,binds
2,B2,binds
3,B3,binds
4,B4,binds
5,B5,binds
6,B6,binds
7,B7,binds
8,B8,binds
9,B9,binds
10,B10,binds
11,B11,binds
12,B12,binds
13,B13,binds
14,B14,binds

# Target: T3, chimeric C10orf54: mouse with human …
# Test: as above
# Protocol: as §1
row,Binder,binding result
1,B3,binds
2,B4,binds
3,B6,binds
4,B7,binds
5,B9,binds
6,B10,binds
7,B13,binds

# Target: T4, chimeric C10orf54: human IgV with mouse …
# Test: as above
# Protocol: as §1
row,Binder,binding result
1,B1,binds
2,B2,binds
3,B3,binds
4,B4,binds
5,B6,binds
6,B7,binds
7,B8,binds
8,B9,binds
9,B10,binds
10,B11,binds
11,B12,binds
12,B13,binds
13,B14,binds

# Target: T5, C10orf54 (antigen of the KD values in …)
# Test: method and antigen form not stated
row,Binder,Kd [nM]
1,B1,0.321
2,B2,0.266
3,B3,0.974
4,B4,0.635
5,B5,1.88
6,B7,2.48
7,B15,1.99
8,B8,1.52
9,B9,0.677
10,B10,1.05
11,B11,5.79
12,B12,10.1
13,B13,6.61
14,B14,3.61
